Drawing on the supplement of paper PMC10567573, this text covers protein stability index for 36 sequences.

± gives the standard deviation.

The series is described as follows: protein stability index of a GFP-peptide fusion (GPS, HEK-293T) (PSI 1-6); higher = more stable. As to conditions: c terminus: a fixed tail appended.
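Also: 24-mer peptide tiles fused after GFP, lentivirally expressed, FACS-sorted into six equal bins by GFP/DsRed ratio, decoded by Illumina sequencing, PSI is the read-weighted mean bin number.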

Consider DLGHVTRISSPQVEEGDSRFLANE [WEE1], for which the protein stability index is 4.88 ± 0.29 (treatment: DMSO) and 4.96 ± 0.27 (treatment: MLN4924 1 uM, 8 h).
On the same counts, the results for EERLERCMSIVTSMTAGVSEREAN [INTS3] are 4.84 ± 0.35 and 4.78 ± 0.29.
On the same counts, the results for MVRFKHRYLLCELVSDDPRCRLSL [POP5] are 2.56 ± 0.38 and 2.55 ± 0.58.
On the same counts, the results for TPEEVIWEALNMMGLYDGMEHLIY [MAGEA10] are 2.49 ± 0.37 and 2.03 ± 0.055.
As for SSSYSPETFRQQFRQFGYQDSPGP [ZNF396], the protein stability index is, setting by setting: (treatment: DMSO) 3.48 ± 0.23; (treatment: MLN4924 1 uM, 8 h) 3.24 ± 0.21.
On the same counts, the results for EDYSAEYIIQQGGWGTVFSLESEE [BCL2L13] are 4.17 ± 0.29 and 3.96 ± 0.46.
On the same counts, the results for QLVLAYDYSREVNTTEELEALITD [FEM1A] are 3.53 ± 0.28 and 3.8 ± 0.34.
On the same counts, the results for QEIATYRRLLEGEDAHLTQYKKEP [KRT17] are 4.68 ± 0.19 and 4.82 ± 0.18.
As for WDERGRAAAYSPSEALLYALVHDH [ANKRD9], the protein stability index by setting is: (treatment: DMSO) 3.02 ± 0.37; (treatment: MLN4924 1 uM, 8 h) 2.95 ± 0.27.
On the same counts, the results for ARLMLESEYRSDIINAKSNDGWTP [ASB7] are 2.65 ± 0.28 and 3.15 ± 0.15.
On the same counts, the results for QYYRWLNYGGVIKNYFQHREFSFT [PRIM1] are 2.34 ± 0.64 and 1.98 ± 0.47.
On the same counts, the results for PAADPPRYTFAPSVSLNKTARPFG [PDLIM7] are 3.54 ± 0.27 and 3.64 ± 0.35.
EVDVQEAGAGWWVGAAYASLRRRG [TRIM14] had a protein stability index (treatment: DMSO) of 3.4 ± 0.28 and a protein stability index (treatment: MLN4924 1 uM, 8 h) of 3.38 ± 0.4.
Take AGDVIFLLSRINKDWLEGTVRGAT [NCF4]: the protein stability index is, setting by setting: (treatment: DMSO) 3.21 ± 0.31; (treatment: MLN4924 1 uM, 8 h) 3.2 ± 0.4.
In the case of TKITSAFKYINTVISCTIFIVGMV [EDNRA], the protein stability index reads like this: (treatment: DMSO) 2.91 ± 1.1; (treatment: MLN4924 1 uM, 8 h) 2.48 ± 1.
For GSKSQRYSGAYGASVSDEELKRRV [CHCHD3], the protein stability index is 4.99 ± 0.29 (treatment: DMSO) and 4.86 ± 0.18 (treatment: MLN4924 1 uM, 8 h).
On the same counts, the results for ENLSVPVIGALLRFNQAILVSRHD [LPCAT4] are 2.43 ± 0.61 and 2.5 ± 0.34.
On the same counts, the results for SSQKQHSFTSSDKTIKSFFPHSGK [C8orf76] are 3.9 ± 0.085 and 4.15 ± 0.14.
On the same counts, the results for VVQEPPGRASRFLQSISWDPEDFE [TLE6] are 4.24 ± 0.33 and 4.65 ± 0.45.
Regarding ASRTSTIFLNGNRERPLNVFCDME [TNXB], the protein stability index was 3.09 ± 0.42 (treatment: DMSO) and 3.07 ± 0.34 (treatment: MLN4924 1 uM, 8 h).
On the same counts, the results for MENIGAIQVLPKLSSSIIHEIDSI [KCNAB2] are 3.53 ± 0.34 and 3.51 ± 0.29.
On the same counts, the results for IFSQSSALILHQRIHSGKKPYACD [ZNF396] are 2.32 ± 0.097 and 2.53 ± 0.24.
Consider LWPTPGHLSPLVVHRQLSHLYAEP [ESR2], for which the protein stability index (treatment: DMSO) is 2.38 ± 0.24 and the protein stability index (treatment: MLN4924 1 uM, 8 h) turned out to be 2.54 ± 0.3.
On the same counts, the results for PLLSNTFTETNNHWPQGPTGPPGP [EMID1] are 3.53 ± 0.33 and 4.08 ± 0.14.
On the same counts, the results for RYVSNWDFFIVGCEVIFCVFIFYY [PKD2L1] are 3.07 ± 0.34 and 2.89 ± 0.32.
For the sequence FGGQNAHNQIAIYAHQPRTADEIP [FUT8], the protein stability index worked out at 3.43 ± 0.23 (treatment: DMSO) and 3.65 ± 0.33 (treatment: MLN4924 1 uM, 8 h).
Consider VHLLLKKVLFALCALNALTTTVCL [FAM189A2], for which the protein stability index turned out to be 3.48 ± 0.24 (treatment: DMSO) and 3.02 ± 0.36 (treatment: MLN4924 1 uM, 8 h).
Regarding QKLQDVLHEALQDYEAGQHMEDPR [ESRRG], the protein stability index by setting is: (treatment: DMSO) 4.72 ± 0.34; (treatment: MLN4924 1 uM, 8 h) 5.13 ± 0.26.
On the same counts, the results for SSGPGNSQNSFLVQEVMEEEWNAL [RPAIN] are 4.88 ± 0.2 and 4.92 ± 0.25.
With KAAQQGKQEENDVVEKLNLFLDLL [SNX8], the protein stability index was 2.45 ± 0.076 (treatment: DMSO) and 2.64 ± 0.34 (treatment: MLN4924 1 uM, 8 h).
On the same counts, the results for PADFSLGSLPGPGQTSGAREPPQA [VENTX] are 5.12 ± 0.2 and 5.16 ± 0.24.
On the same counts, the results for DFWLMVWEQKVLVIVMTTRFEEGG [PTPN9] are 2.69 ± 0.77 and 2.58 ± 0.07.
On the same counts, the results for RLQVKEHQHEEIQNVRNHIHSCFS [ATL3] are 3.21 ± 0.17 and 3.23 ± 0.21.
RDRNLLQEDKALWEEEKALWVEER [CCDC70] gave a protein stability index (treatment: DMSO) of 5.007 ± 0.024 and a protein stability index (treatment: MLN4924 1 uM, 8 h) of 5.04 ± 0.28.
On the same counts, the results for YDYVREFKRSTGTWHHTKPLLPSD [GAN] are 3.2 ± 0.32 and 3.27 ± 0.21.
Take WLNKEKGIFKIEDSAQVARLWGIR [SPDEF]: the protein stability index was found to be 2.63 ± 0.32 (treatment: DMSO) and 2.35 ± 0.17 (treatment: MLN4924 1 uM, 8 h).
